The results in this text go back to publication PMC6127294, “Jungle Express is a versatile repressor system for tight transcriptional control” (Nature Communications, 2018).

One data set concerns the target T1, EilR-H47A (UniProt A0A346M331 1-192, H47A).
T1 sequence: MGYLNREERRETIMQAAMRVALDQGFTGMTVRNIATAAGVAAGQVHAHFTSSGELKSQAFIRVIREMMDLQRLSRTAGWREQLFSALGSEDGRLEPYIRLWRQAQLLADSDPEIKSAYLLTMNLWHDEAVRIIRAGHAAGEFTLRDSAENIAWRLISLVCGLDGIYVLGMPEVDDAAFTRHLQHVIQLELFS
Kind of data set: EMSA; up to 8:1 protein:DNA; 10 mM MgCl2; Operator EMSA: 30 mM Tris pH 7.7, 100 mM NaCl, 25 mM arginine, 25 mM glutamine, 5 mM MgCl2, RT 1.5 h; mutant EMSA: 50 mM Tris pH 8.0, 150 mM NaCl, 50 mM arginine, 50 mM glutamine, 10 mM MgCl2, 0.5 mM DTT, RT 30 min; 2% agarose TBE gels. The conditions noted are these: protein: recombinant; chain copies: 2.

The next data set has as its target T2, EilR-R32A (UniProt A0A346M331 1-192, R32A).
T2 sequence: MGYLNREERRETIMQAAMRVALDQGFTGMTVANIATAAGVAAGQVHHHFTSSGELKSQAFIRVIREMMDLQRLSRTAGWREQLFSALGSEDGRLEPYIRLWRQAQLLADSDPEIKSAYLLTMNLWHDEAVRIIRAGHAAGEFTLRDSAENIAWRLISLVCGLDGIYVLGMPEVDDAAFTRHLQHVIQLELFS
The data set is described as above. The conditions noted are these: protein: recombinant; chain copies: 2.

Another data set deals with T3, EilR-Y03A/R32A (UniProt A0A346M331 1-192, Y3A;R32A).
T3 sequence: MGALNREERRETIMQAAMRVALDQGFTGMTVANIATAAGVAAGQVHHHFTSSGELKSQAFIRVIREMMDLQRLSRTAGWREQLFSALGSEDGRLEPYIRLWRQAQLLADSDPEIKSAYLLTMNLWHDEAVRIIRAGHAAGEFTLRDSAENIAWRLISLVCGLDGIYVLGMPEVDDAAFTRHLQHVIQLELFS
Described as above. The conditions noted are these: protein: recombinant; chain copies: 2.

Data set [1] has as its target T4, EilR (UniProt A0A346M331 1-192).
T4 sequence: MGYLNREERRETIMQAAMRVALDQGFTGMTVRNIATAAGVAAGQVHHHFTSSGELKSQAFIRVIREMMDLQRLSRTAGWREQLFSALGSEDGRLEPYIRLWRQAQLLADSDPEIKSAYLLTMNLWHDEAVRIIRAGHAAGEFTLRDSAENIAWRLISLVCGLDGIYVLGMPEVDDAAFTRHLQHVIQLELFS
Kind of data set: EMSA; complex appears from 0.125:1 EilR:DNA; 10 mM MgCl2; Operator EMSA: 30 mM Tris pH 7.7, 100 mM NaCl, 25 mM arginine, 25 mM glutamine, 5 mM MgCl2, RT 1.5 h; mutant EMSA: 50 mM Tris pH 8.0, 150 mM NaCl, 50 mM arginine, 50 mM glutamine, 10 mM MgCl2, 0.5 mM DTT, RT 30 min; 2% agarose TBE gels. The conditions noted are these: protein: recombinant; tags: His8 removed with TEV protease; chain copies: 2. For orientation: In EMSA bound probe runs differently from free probe, usually more slowly.

Data set [2] has as its target T4, EilR. As to the kind of experiment: EMSA; lower affinity than eilOc; 5 mM MgCl2; Operator EMSA: 30 mM Tris pH 7.7, 100 mM NaCl, 25 mM arginine, 25 mM glutamine, 5 mM MgCl2, RT 1.5 h; mutant EMSA: 50 mM Tris pH 8.0, 150 mM NaCl, 50 mM arginine, 50 mM glutamine, 10 mM MgCl2, 0.5 mM DTT, RT 30 min; 2% agarose TBE gels. The conditions noted are these: protein: recombinant; tags: His8 removed with TEV protease; chain copies: 2.

B1: eilOc 28-mer duplex (dsDNA)
DNA 1: AAAAAGTTGGACACGTGTCCAACTTTCC
DNA 2: GGAAAGTTGGACACGTGTCCAACTTTTT
Take B1: the binding result in the data set with EilR-H47A is recorded as “no binding”; in the data set with EilR-R32A, “no binding”; in the data set with EilR-Y03A/R32A, “no binding”; with EilR [1], “binds”.

B2: eilO2 (dsDNA)
DNA 1: CGCAAACTGGACGGATGTCCAGCTTTGT
DNA 2: ACAAAGCTGGACATCCGTCCAGTTTGCG
As for B2, the binding result with EilR [2] is “binds”.
